Experimental data: PMC10543426, “The PALB2 DNA-binding domain is an intrinsically disordered recombinase” (Research Square, 2023)

What was measured:
[1] = biological target: PALB2 coiled-coil (Homo sapiens) (UniProt Q86YC2); assay: NMR titration; settings: cited from earlier work
PALB2-DBD [2] = biological target: T1, PALB2-DBD (Homo sapiens, UniProt Q86YC2 1-195, I195W); assay: smFRET; mean FRET 0.18 free, 0.45 and 0.79 bound; AUC of DNA complexes: 0.1 M NaCl, 20 C; smFRET, EPR and CD buffers not in the material; settings: protein: recombinant; tags: 6xHis-SUMO and MBP, cleaved by Ulp1/TEV; chain copies: 2; label: 5' Cy3, Cy5 at position 50; single strand
T1 sequence: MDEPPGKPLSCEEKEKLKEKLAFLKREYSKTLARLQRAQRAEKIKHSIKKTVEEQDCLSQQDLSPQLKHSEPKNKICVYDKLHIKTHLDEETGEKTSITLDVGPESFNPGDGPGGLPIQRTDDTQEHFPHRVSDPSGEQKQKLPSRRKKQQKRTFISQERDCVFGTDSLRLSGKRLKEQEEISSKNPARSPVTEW

PALB2-DBD [3] = biological target: T1, PALB2-DBD; assay: analytical ultracentrifugation; DNA:protein 1:2 and 1:4; 0.1 M NaCl; AUC of DNA complexes: 0.1 M NaCl, 20 C; smFRET, EPR and CD buffers not in the material; settings: protein: recombinant; tags: 6xHis-SUMO and MBP, cleaved by Ulp1/TEV; chain copies: 2; label: Cy3; single strand
[4] = biological target: the molecule itself; assay: AUC; sedimentation velocity, protein alone; 1 M NaCl, 10% glycerol, 1 mM TCEP, 2 mM CHAPS, 25 mM HEPES pH 7.5; 30,000 rpm, 20°C, absorbance at 280 nm; relatively high protein concentration
[5] = biological target: the molecule itself; assay: AUC; sedimentation velocity with Cy3-labelled ssDNA (Cy3-dT50 or Cy3-dT25), DNA:protein molar ratios 1:2 and 1:4 (4 and 8 μM protein), 0.1 M NaCl, 10% glycerol, 1 mM TCEP, 2 mM CHAPS, 25 mM HEPES pH 7.5, 20°C, absorbance at 550 nm; dimers to tetramer
PALB2-DBD [6] = biological target: T1, PALB2-DBD; assay: analytical ultracentrifugation; DNA:protein 1:2 and 1:4; no free DNA peak; 0.1 M NaCl; AUC of DNA complexes: 0.1 M NaCl, 20 C; smFRET, EPR and CD buffers not in the material; settings: protein: recombinant; tags: 6xHis-SUMO and MBP, cleaved by Ulp1/TEV; chain copies: 2; label: 5' Cy3; single strand

PALB2 coiled-coil (from UniProt Q86YC2)
Kd [1]: 80 µM

B1: Cy3-dT50-Cy5 (ssDNA)
DNA: TTTTTTTTTTTTTTTTTTTTTTTTTTTTTTTTTTTTTTTTTTTTTTTTTT
binding result (PALB2-DBD [2]): binds

B2: Cy3-dT50 (ssDNA)
DNA: TTTTTTTTTTTTTTTTTTTTTTTTTTTTTTTTTTTTTTTTTTTTTTTTTT
binding result (PALB2-DBD [3]): binds

B3: PALB2 DNA-binding domain (PALB2-DBD), N-terminal fragment 1-195 I195W (domain or fragment, human, UniProt Q86YC2 1-195, looked up)
chain: MDEPPGKPLSCEEKEKLKEKLAFLKREYSKTLARLQRAQRAEKIKHSIKKTVEEQDCLSQQDLSPQLKHSEPKNKICVYDKLHIKTHLDEETGEKTSITLDVGPESFNPGDGPGGLPIQRTDDTQEHFPHRVSDPSGEQKQKLPSRRKKQQKRTFISQERDCVFGTDSLRLSGKRLKEQEEISSKNPARSPVTEW
notes: Partner and Localizer of BRCA2 (PALB2), human, amino acids 1-195; the last amino acid mutated to tryptophan to increase absorption at 280 nm; SUMO cleaved with Ulp1 and MBP with TEV protease; also called PLAB2-DBD; source: E. coli BL21*, purified (amylose resin, heparin, gel filtration); not shown: 6×His-SUMO, N-terminal, cleaved; MBP, C-terminal, cleaved
stoichiometry N [4]: 2
stoichiometry N [5]: 4

B4: Cy3-dT25 (25mer) (ssDNA)
DNA: TGGCGACGGCAGCGAGGCTCTCTAC
binding result (PALB2-DBD [6]): binds
